Assays:
[1] = molecular target: T1, mouse NKG2D (mouse, UniProt O54709 94-232, limits assumed); assay: ELISA on mouse NKG2D, absorbance against nM MicAbody
T1 construct: also called mouse wild-type NKG2D
T1 sequence (looked up): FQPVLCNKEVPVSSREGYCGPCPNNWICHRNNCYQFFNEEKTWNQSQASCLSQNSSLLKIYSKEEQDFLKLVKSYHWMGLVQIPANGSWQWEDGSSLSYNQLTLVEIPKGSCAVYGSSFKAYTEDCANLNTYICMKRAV

[2] = molecular target: Fc-wtNKG2D (wild-type NKG2D ectodomain fused to the C-terminus of human IgG1 Fc) (human) (UniProt P26718); assay: ELISA; wells coated with Fc-wtNKG2D, R3Mab heavy-chain MicAbody titrated
[3] = molecular target: T2, His-tagged monomeric ULBP2 R81W (human, UniProt Q9BZM5 29-212); assay: Octet BLI; Fc-wtNKG2D captured on AHC tips, dilution series of His-tagged monomeric ligand
T2 construct: range 29-212; Construct limits are stated only for wild-type ULBP2-His; position 81 counts on the mature protein, not on the UniProt entry
T2 sequence: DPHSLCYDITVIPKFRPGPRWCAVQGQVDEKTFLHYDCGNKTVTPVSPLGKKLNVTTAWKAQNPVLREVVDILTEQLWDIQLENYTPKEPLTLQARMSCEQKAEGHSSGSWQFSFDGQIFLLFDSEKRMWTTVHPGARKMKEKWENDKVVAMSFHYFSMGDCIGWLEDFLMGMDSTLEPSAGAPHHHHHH
Text: (§1) YA. […] YA were captured with anti-human IgG Fc capture (AHC) biosensor tips then associated with a dilution series of ligand. Data are from single experiments.

[4] = molecular target: T3, A1-A2 domain of human ULBP2 with C-terminal 6x-His tag (monomer) (human, UniProt Q9BZM5 29-212); assay: as above
T3 construct: range 29-212; also called wild-type ULBP2; MIC-His ligand
T3 sequence: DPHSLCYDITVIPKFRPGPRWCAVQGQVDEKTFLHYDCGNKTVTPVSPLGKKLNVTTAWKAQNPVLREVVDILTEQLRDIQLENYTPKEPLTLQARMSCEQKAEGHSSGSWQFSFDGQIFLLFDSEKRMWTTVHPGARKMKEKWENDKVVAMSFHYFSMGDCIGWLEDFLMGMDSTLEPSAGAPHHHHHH
Text: as §1

[5] = molecular target: T4, A1-A2 domain of human MICB with C-terminal 6x-His tag (monomer) (human, UniProt Q29980 24-205); assay: Octet BLI, response against concentration (legend: monomeric ligands; axis on the sheet: nM Fc-NKG2D.wt)
T4 construct: range 24-205; also called MIC-His ligand
T4 sequence: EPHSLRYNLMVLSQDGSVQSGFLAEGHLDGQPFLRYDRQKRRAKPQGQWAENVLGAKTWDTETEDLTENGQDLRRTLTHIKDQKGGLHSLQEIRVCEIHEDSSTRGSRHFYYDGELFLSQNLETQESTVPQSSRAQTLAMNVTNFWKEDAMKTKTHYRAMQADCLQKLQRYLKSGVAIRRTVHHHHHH

[6] = molecular target: T5, A1-A2 domain of human ULBP3 with C-terminal 6x-His tag (monomer) (human, UniProt Q9BZM4 30-212); assay: as above
T5 construct: range 30-212; also called MIC-His ligand
T5 sequence: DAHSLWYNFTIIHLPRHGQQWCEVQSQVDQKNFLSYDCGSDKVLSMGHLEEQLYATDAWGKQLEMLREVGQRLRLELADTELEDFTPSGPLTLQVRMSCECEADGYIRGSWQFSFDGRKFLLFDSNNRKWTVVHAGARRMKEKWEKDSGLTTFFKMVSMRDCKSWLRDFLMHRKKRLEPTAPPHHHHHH

[7] = molecular target: T6, A1-A2 domain of human MICA*001 with C-terminal 6x-His tag (monomer) (human, UniProt Q29983 24-205); assay: Octet BLI; Fc-wtNKG2D captured on anti-human IgG Fc (AHC) tips, dilution series of His-tagged monomeric ligand
T6 construct: range 24-205; also called MIC-His ligand
T6 sequence: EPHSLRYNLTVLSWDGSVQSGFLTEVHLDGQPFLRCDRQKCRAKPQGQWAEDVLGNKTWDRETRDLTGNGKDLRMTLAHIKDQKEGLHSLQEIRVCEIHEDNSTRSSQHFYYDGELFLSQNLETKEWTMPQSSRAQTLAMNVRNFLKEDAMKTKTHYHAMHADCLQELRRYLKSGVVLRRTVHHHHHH
Text: Note that all axes are to the same scale (Binding-0 nm, 0.4 nm. 0.8 nm, 1.2 nm (y-axis); Time-0 s, 50 s, 100 s, 150 s, 200 s, 250 s, 300 s, 350 s (x-axis). Data is representative of a single experiment.

[8] = molecular target: T7, MICA-Fc (R&D Systems) (human, UniProt Q29983 24-308, limits assumed); assay: ELISA; ligand-Fc coated, biotinylated Fc-wtNKG2D, streptavidin-HRP (legend: the Fc-NKG2D is titrated; axis on the sheet: nM ligand-Fc)
T7 construct: Bought; also called Ligand-Fc fusion; not shown: Fc of the bought fusion; not described
T7 sequence (looked up): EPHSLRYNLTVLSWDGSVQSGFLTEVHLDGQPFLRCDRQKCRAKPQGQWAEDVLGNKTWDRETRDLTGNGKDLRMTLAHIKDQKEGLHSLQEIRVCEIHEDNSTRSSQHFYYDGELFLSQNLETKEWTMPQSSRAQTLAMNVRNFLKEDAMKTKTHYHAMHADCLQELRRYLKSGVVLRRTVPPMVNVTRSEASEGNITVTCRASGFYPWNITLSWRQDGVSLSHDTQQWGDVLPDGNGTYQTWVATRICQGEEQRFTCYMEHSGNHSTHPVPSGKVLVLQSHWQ

[9] = molecular target: T8, MICB-Fc (R&D Systems) (human, UniProt Q29980 23-298, limits assumed); assay: as above
T8 construct: Bought; also called Ligand-Fc fusion; not shown: Fc of the bought fusion; not described
T8 sequence (looked up): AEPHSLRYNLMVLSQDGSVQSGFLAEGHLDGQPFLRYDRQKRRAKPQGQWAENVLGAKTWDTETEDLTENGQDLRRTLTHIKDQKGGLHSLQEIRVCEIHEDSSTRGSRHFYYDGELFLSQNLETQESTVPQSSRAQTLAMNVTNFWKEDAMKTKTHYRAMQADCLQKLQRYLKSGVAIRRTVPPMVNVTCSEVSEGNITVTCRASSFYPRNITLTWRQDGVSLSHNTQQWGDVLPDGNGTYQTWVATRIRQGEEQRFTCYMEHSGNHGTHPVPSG

[10] = molecular target: T9, ULBP1-Fc (R&D Systems) (human, UniProt Q9BZM6 26-216); assay: as above
T9 construct: Bought; also called Ligand-Fc fusion; not shown: Fc of the bought fusion; not described
T9 sequence (looked up): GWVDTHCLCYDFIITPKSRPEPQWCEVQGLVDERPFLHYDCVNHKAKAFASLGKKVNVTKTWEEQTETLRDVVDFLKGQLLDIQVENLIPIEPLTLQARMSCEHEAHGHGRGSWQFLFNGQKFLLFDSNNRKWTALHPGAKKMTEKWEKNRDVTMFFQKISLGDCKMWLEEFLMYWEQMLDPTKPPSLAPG

[11] = molecular target: T10, ULBP3-Fc (R&D Systems) (human, UniProt Q9BZM4 30-217); assay: as above
T10 construct: Bought; also called Ligand-Fc fusion; not shown: Fc of the bought fusion; not described
T10 sequence (looked up): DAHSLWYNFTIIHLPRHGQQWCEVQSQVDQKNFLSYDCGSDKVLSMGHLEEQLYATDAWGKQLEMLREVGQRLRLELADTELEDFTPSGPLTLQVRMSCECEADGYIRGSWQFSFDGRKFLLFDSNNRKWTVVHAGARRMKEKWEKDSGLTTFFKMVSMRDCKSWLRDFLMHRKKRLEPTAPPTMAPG

[12] = molecular target: Fc-iNKG2D.YA (NKG2D ectodomain Y152A fused to the C-terminus of human IgG1 Fc) (human) (UniProt P26718); assay: ELISA; wells coated with Fc-iNKG2D.YA, R3Mab heavy-chain MicAbody titrated
[13] = molecular target: T11, Fc-iNKG2D.YA (NKG2D ectodomain Y152A fused to the C-terminus of human IgG1 Fc) (human, UniProt P26718 78-216); assay: ELISA; wells coated with Fc-iNKG2D.YA, Rituximab.LC-U2S3 titrated, HRP anti-human kappa
T11 construct: range 78-216; it is not tied by words to this Fc fusion; not shown: human IgG1 Fc
T11 sequence: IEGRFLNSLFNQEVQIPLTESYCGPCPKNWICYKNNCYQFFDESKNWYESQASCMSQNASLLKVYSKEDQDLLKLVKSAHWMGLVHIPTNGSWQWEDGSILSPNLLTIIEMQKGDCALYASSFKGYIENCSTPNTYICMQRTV

[14] = molecular target: T11, Fc-iNKG2D.YA (NKG2D ectodomain Y152A …); assay: Octet BLI; Fc-iNKG2D.YA captured on AHC tips, two-fold dilution series of MicAbody from 50 nM
Text: The y-axes corresponding to binding responses were set to the same scale for all sensograms.

Trastuzumab.LC-Rae1b (bispecific antibody)
EC50 (read off the curve) [1]: 1 nM

B1: R3Mab (anti-FGFR3) heavy-chain C-terminal fusion of wild-type ULBP2 (MicAbody) (bispecific antibody, part only; not given: R3Mab variable regions and Fc, IgG1, not shown: a dimerising Fc or GST)
heavy, part: GGGSDPHSLCYDITVIPKFRPGPRWCAVQGQVDEKTFLHYDCGNKTVTPVSPLGKKLNVTTAWKAQNPVLREVVDILTEQLRDIQLENYTPKEPLTLQARMSCEQKAEGHSSGSWQFSFDGQIFLLFDSEKRMWTTVHPGARKMKEKWENDKVVAMSFHYFSMGDCIGWLEDFLMGMDSTLEPSAG
EC50 (read off the curve) [2]: 0.4 nM

B2: R3Mab (anti-FGFR3) heavy-chain C-terminal fusion of ULBP2 R81W (MicAbody) (bispecific antibody, part only; not given: R3Mab variable regions and Fc, IgG1, not shown: a dimerising Fc or GST)
heavy, part: GGGSDPHSLCYDITVIPKFRPGPRWCAVQGQVDEKTFLHYDCGNKTVTPVSPLGKKLNVTTAWKAQNPVLREVVDILTEQLWDIQLENYTPKEPLTLQARMSCEQKAEGHSSGSWQFSFDGQIFLLFDSEKRMWTTVHPGARKMKEKWENDKVVAMSFHYFSMGDCIGWLEDFLMGMDSTLEPSAG
EC50 (read off the curve) [2]: 0.02 nM

B3: Fc-wtNKG2D (wild-type NKG2D ectodomain fused to the C-terminus of human IgG1 Fc) (Fc fusion)
chain: IEGRFLNSLFNQEVQIPLTESYCGPCPKNWICYKNNCYQFFDESKNWYESQASCMSQNASLLKVYSKEDQDLLKLVKSYHWMGLVHIPTNGSWQWEDGSILSPNLLTIIEMQKGDCALYASSFKGYIENCSTPNTYICMQRTV
notes: range 78-216; Dimeric secreted protein from Expi293 cells; also called Fc-NKG2D; not shown: human IgG1 Fc
Kd [3]: 8 nM
Kd [4]: 350 nM
binding result [5]: binds
binding result [6]: binds
binding result [7]: binds
binding result [8]: binds
binding result [9]: binds
binding result [10]: binds
binding result [11]: binds

B4: R3Mab (anti-FGFR3) heavy-chain C-terminal fusion of U2S3 (MicAbody) (bispecific antibody, part only; not given: R3Mab variable regions and Fc, IgG1, not shown: a dimerising Fc or GST)
heavy, part: GGGSEPHSLSYDITVIPKFRPGPRWCAVQGQVDEKTFLHYDCGQKTVTPVSPLGKKLQVTTAWKAQNPVLREVVDILTEQLWDIQLENYTPKEPLTLQARMSCEQKAEGHSSGSWQFSFDGQIFLLFDSEKRMWTTVHPGARKMKEKWENDKVVATKLYLWSMGDCIGWLEDFLMGMDSTLEPS
EC50 (read off the curve) [12]: 0.02 nM

B5: Rituximab.LC-U2S3 MicAbody (U2S3 A1-A2 domain fused to the C-terminus of the rituximab kappa light chain) (bispecific antibody)
heavy: QVQLQQPGAELVKPGASVKMSCKASGYTFTSYNMHWVKQTPGRGLEWIGAIYPGNGDTSYNQKFKGKATLTADKSSSTAYMQLSSLTSEDSAVYYCARSTYYGGDWYFNVWGAGTTVTVSAA
light (part 1 of 2): QIVLSQSPAILSASPGEKVTMTCRASSSVSYIHWFQQKPGSSPKPWIYATSNLASGVPVRFSGSGSGTSYSLTISRVEAEDAATYYCQQWTSNPPTFGGGTKLEIK
light (part 2 of 2): APTSSSGGGGSEPHSLSYDITVIPKFRPGPRWCAVQGQVDEKTFLHYDCGQKTVTPVSPLGKKLQVTTAWKAQNPVLREVVDILTEQLWDIQLENYTPKEPLTLQARMSCEQKAEGHSSGSWQFSFDGQIFLLFDSEKRMWTTVHPGARKMKEKWENDKVVATKLYLWSMGDCIGWLEDFLMGMDSTLEPS
notes: also called Rit-S3; Ritux-S3; not shown: human IgG1 heavy-chain constant region, ADCC-deficient; human kappa light-chain constant region
EC50 (read off the curve) [13]: ~0.03 nM
Kd [14]: 0.01 nM

Reference: patent US20240287202A1 (XYPHOS BIOSCIENCES, published 2024)
